Like-named read-outs stand apart in the source and are kept apart here.
What was measured:
CmRSM1-GST [1] = molecular target: T1, CmRSM1-GST (Cucumis melo (melon), UniProt A0A1S3CDK8 1-116); assay: EMSA
T1 sequence: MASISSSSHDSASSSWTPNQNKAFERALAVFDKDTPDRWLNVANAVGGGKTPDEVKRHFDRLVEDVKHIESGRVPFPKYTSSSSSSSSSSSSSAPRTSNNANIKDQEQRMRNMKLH

CmRSM1-GST [2] = molecular target: T1, CmRSM1-GST; assay: EMSA; remark: listed apart in the source

B1: P1 probe (CmBr promoter, Myb motif) (dsDNA)
DNA 1: ACATTTACTTTTAGATGAAATTGTAACAGTTAGCTAAGTCGTTCACTTCGTTGAAATTA
DNA 2: TAATTTCAACGAAGTGAACGACTTAGCTAACTGTTACAATTTCATCTAAAAGTAAATGT
CmRSM1-GST [1]
  binding result: binds

B2: P2 probe (CmBr promoter, MYB and MBS motifs) (dsDNA)
DNA 1: GACAACAAATTTATAAGTAATTGTTCAACCAACTGAAAACGAGAAAAGTAAATATATCT
DNA 2: AGATATATTTACTTTTCTCGTTTTCAGTTGGTTGAACAATTACTTATAAATTTGTTGTC
CmRSM1-GST [2]
  binding result: no binding

B3: P3 probe (CmBr promoter, MRE motif) (dsDNA)
DNA 1: ACTTAGTTTTGAGATCAAATAACTCCTTAGGTTAGTTAATCATTCATTGATTCAATCAA
DNA 2: TTGATTGAATCAATGAATGATTAACTAACCTAAGGAGTTATTTGATCTCAAAACTAAGT
CmRSM1-GST [2]
  binding result: no binding
